Experimental data reported in PMC10228819, “Changing course: Glucose starvation drives nuclear accumulation of Hexokinase 2 in S. cerevisiae” (PLOS Genetics, 2023).

Tests used:
[1] = biological target: Hxk2 (hexokinase 2, ScHxk2) (UniProt P04807); assay: size exclusion chromatography; settings: reference: wild type Hxk2, no glucose; sites S15
[2] = biological target: the molecule itself; assay: SEC; TOSOH G2000 SWXL column on HPLC; 40 μg protein in 50 μl; hexokinase buffer (20 mM HEPES, 5 mM Mg acetate, 100 mM NaCl, 0.5 mM EDTA, 0.5 mM DTT) without glucose, no ATP; 1 mL/min

Molecule	other: SEC elution volume [1]	stoichiometry N [2]
Hxk2 (hexokinase 2, ScHxk2) (from UniProt P04807) Hxk2 S15D, no glucose	lost; reference ~8.8	
Recombinant Hxk2, wild type, with C-terminal 6-histidine tag (enzyme, S. cerevisiae, Hexokinase 2 (Hxk2), S. cerevisiae, cloned into pET14b; also called WT Hxk2; purified Hxk2; source: E. coli, purified (Ni-NTA)) MVHLGPKKPQARKGSMADVPKELMQQIENFEKIFTVPTETLQAVTKHFISELEKGLSKKGGNIPMIPGWVMDFPTGKESGDFLAIDLGGTNLRVVLVKLGGDRTFDTTQSKYRLPDAMRTTQNPDELWEFIADSLKAFIDEQFPQGISEPIPLGFTFSFPASQNKINEGILQRWTKGFDIPNIENHDVVPMLQKQITKRNIPIEVVALINDTTGTLVASYYTDPETKMGVIFGTGVNGAYYDVCSDIEKLQGKLSDDIPPSAPMAINCEYGSFDNEHVVLPRTKYDITIDEESPRPGQQTFEKMSSGYYLGEILRLALMDMYKQGFIFKNQDLSKFDKPFVMDTSYPARIEEDPFENLEDTDDLFQNEFGINTTVQERKLIRRLSELIGARAARLSVCGIAAICQKRGYKTGHIAADGSVYNRYPGFKEKAANALKDIYGWTQTSLDDYPIKIVPAEDGSGAGAAVIAALAQKRIAEGKSVGIIGA		2
